Experimental findings from patent US20040214995A1 (published 2004) are described below.

One test has as its target T1, HLA-A2.1 (heavy chain with human beta 2-microglobulin) (human).
With ATWGQYWQV [G9-154-1A], the concentration for half-maximal inhibition (IC50) worked out at 5.2 nM. That is a single-digit nanomolar value.
In turn, WTWGQYWQV [G9-154-1W] returned a concentration for half-maximal inhibition (IC50) of 60 nM.
The molecule KLWGQYWQV [G9-154-2L] displayed a half-inhibitory concentration (IC50) of 2 nM.
KTFGQYWQV [G9-154-3F]: inhibition was half-maximal at 21 nM (IC50).
The same measure, in the same setting: then LLWGQYWQV [G9-154-1L2L], with 1.6 nM.
The molecule KIWGQYWQV [G9-154-2I] registered an IC50 of 3 nM.
Same read-out and setting: then WLWGQYWQV [G9-154-1W2L], with 2.8 nM; and FLWGQYWQV [G9-154-1F2L], with 2.6 nM.
Still for that read-out and setting: then FTWGQYWQV [G9-154-1F], with 1.6 nM; and ALWGQYWQV [G9-154-1A2L], with 2.3 nM.
KTYGQYWQV [G9-154-3Y] gave a half-inhibitory concentration (IC50) of 30 nM.
As for LTWGQYWQV [G9-154-1L], the IC50 is 3.4 nM.
KMWGQYWQV [G9-154-2M] gave a concentration for half-maximal inhibition (IC50) of 6.5 nM.
YLWGQYWQV [G9-154-1Y2L] returned a half-inhibitory concentration (IC50) of 1.7 nM.
YTWGQYWQV [G9-154-1Y]: the midpoint of inhibition, the IC50, lay at 2.5 nM.

The target of the next test is T1, HLA-A2.1 (heavy chain with human beta …). This is another data set of the same source.
As to LLDGTATLRL [gp100 peptide G10-4 (LLDGTATLRL)], half-maximal inhibition (IC50) was put at 483 nM and the “Ratio to Standard” value was 0.01.
Regarding VLYRYGSFSV [gp100 peptide G10-5 (VLYRYGSFSV)], the concentration for half-maximal inhibition (IC50) stood at 13 nM and the “Ratio to Standard” value turned out to be 0.38.
